Assay results from publication PMC9613477.

Columns and labels:
Experiment in all cases: crystal structure; disulfide cross-linked CA hexamers, hanging- or sitting-drop vapour diffusion, data at 100 K, molecular replacement with PDB 3H47
[1] = biological target: SIVcpz CA hexamer (P14C, E45C, W184A, M185A) (SIVcpzPtt (SIV of central chimpanzees))
[2] = biological target: HIV-1(O-group) CA hexamer (A14C, E45C, W185A, M186A) (HIV-1 group O)
[3] = biological target: HIV-1(M-group) CA Q50Y hexamer (A14C, E45C, Q50Y, W184A, M185A) (HIV-1 group M)
[4] = biological target: SIVmac CA hexamer (P13C, E44C, W182A, M183A) (SIVmac (SIV from macaques))

Substance: SIVcpz CA hexamer (P14C, E45C, W184A, M185A) (natural protein)
- stoichiometry N [1]: 6

Substance: HIV-1(O-group) CA hexamer (A14C, E45C, W185A, M186A) (natural protein)
- stoichiometry N [2]: 6

Substance: HIV-1(M-group) CA Q50Y hexamer (A14C, E45C, Q50Y, W184A, M185A) (natural protein)
- stoichiometry N [3]: 6

Substance: SIVmac CA hexamer (P13C, E44C, W182A, M183A) (natural protein)
- stoichiometry N [4]: 6
